# Where two headings read alike, the source gives them in different places. Ends that are not written are not given here.
# Key:
# [1] = molecular target: T1, human μ opioid receptor coupled to G protein-activated K+ channel (Homo sapiens, UniProt P35372); assay type: cell-based
# T1 construct: Messenger RNAs encoding both proteins (Chen and Yu, 1994) were generated by in vitro transcription and injected into Xenopus oocytes; expressed in transfected cells; host or cells: Xenopus laevis oocytes (mRNA injection)
# [2] = molecular target: T2, rat μ opioid receptor coupled to G protein-activated K+ channel (Rattus norvegicus, UniProt P33535, V245I); assay type: cell-based
# T2 construct: A cDNA clone, MOR-1, containing the protein coding region of a rat μ opioid receptor has been described; expressed in transfected cells; host or cells: Xenopus oocytes (mRNA injection)
# [3] = molecular target: T3, rat μ-opioid receptor MOR-1 (Rattus norvegicus, UniProt P33535, V245I); assay: biochemical; assay type: binding
# T3 construct: A 1.4-kilobase HindIII fragment encompassing the open reading frame from the cDNA encoding MOR-1 was cloned; expressed in transfected cells; host or cells: COS-7
# [4] = molecular target: T4, novel member of the opioid receptor gene family (SEQ ID NO: 17) (Rattus norvegicus, UniProt P35370); assay type: cell-based
# T4 construct: mRNA of this clone was synthesized by in vitro transcription and coinjected into Xenopus oocytes; expressed in transfected cells; host or cells: Xenopus oocytes (mRNA injection)
# rat μ opioid receptor = molecular target: T5, rat μ opioid receptor (Rattus norvegicus, UniProt P33535, V245I); assay type: binding
# T5 construct: A plasmid containing a 1.4 kb cDNA for the rat μ opioid receptor in a mammalian expression vector pRc/CMV has been described; expressed in transfected cells
# [5] = molecular target: T6, human μ receptor (adenylyl cyclase) (Homo sapiens, UniProt P35372); assay type: cell-based
# T6 construct: the cDNA containing the open reading frame of the receptor was cloned downstream of the human cytomegalovirus promoter in the mammalian expression vector pcDNA3; expressed in transfected cells; host or cells: COS-7 (transient)
# [6] = molecular target: T7, cloned human μ opioid receptor (Homo sapiens, UniProt P35372); conditions: read-out: Binding potencies (Ki-nM), human μ receptor, [3H]DAMGO
# T7 construct: the cDNA containing the open reading frame of the receptor was cloned downstream of the human cytomegalovirus promoter in the mammalian expression vector pcDNA3; expressed in transfected cells; host or cells: COS-7 (transient)
# [7] = molecular target: T8, cloned human mu opioid receptor (human, UniProt P35372 1-400); assay: inhibition of 2 nM [3H]DAMGO binding; membranes of COS-7 cells expressing the human µ receptor
# T8 construct: Full-length receptor expressed from pcDNA3 in COS-7 cells (membranes) or from mRNA in Xenopus oocytes; also called human µ opioid receptor; human µ receptor
# [8] = molecular target: human μ opioid receptor hμOR1 (Homo sapiens, UniProt P35372, D51N)
# Mu1 site = conditions: Clark et al., 1988; cited from earlier work
# Mu2 site = conditions: Clark et al., 1988; cited from earlier work
# [9] = molecular target: μ opioid receptor (PL-17 sites), guinea pig brain membranes; conditions: read-out: affinity (displacement of radiolabeled PL-17); Kawasaki et al., 1990; cited from earlier work
# [10] = molecular target: mu opioid receptor (DAMGO sites); conditions: read-out: affinity (displacement of radiolabeled DAMGO); Vaughn and Taylor, 1989; cited from earlier work
# [11] = molecular target: T9, rat mu opioid receptor MOR-1 (rat, UniProt P33535 1-398); assay: cell-based or functional assay
# T9 construct: Full-length receptor expressed from the cDNA in COS-7 cells (membranes), stably in CHO cells (membranes, whole cells) or in Xenopus oocytes; also called rat µ-opioid receptor; cloned rat µ receptor
# [12] = molecular target: T9, rat mu opioid receptor MOR-1; assay: saturation binding; membranes of stably transfected CHO cells
# [13] = molecular target: T9, rat mu opioid receptor MOR-1; assay: [3H]DAMGO binding to COS-7 membranes with 100 mM GTPgS in the assay
# [14] = molecular target: T8, cloned human mu opioid receptor; assay: as above
# [15] = molecular target: T9, rat mu opioid receptor MOR-1; assay: saturation binding of [3H]DAMGO; membranes of stably transfected CHO cells
# [16] = molecular target: T8, cloned human mu opioid receptor; assay: saturation binding; membranes of COS-7 cells expressing the human µ receptor
# [17] = molecular target: T9, rat mu opioid receptor MOR-1; assay: [3H]DAMGO binding to membranes of COS-7 cells pretreated with pertussis toxin
# [18] = molecular target: T8, cloned human mu opioid receptor; assay: as above
# [19] = molecular target: T9, rat mu opioid receptor MOR-1; assay: displacement of 0.25 nM [3H]diprenorphine; membranes of COS-7 cells expressing MOR-1
# [20] = molecular target: T8, cloned human mu opioid receptor; assay: saturation binding, Scatchard analysis; membranes of COS-7 cells expressing the human µ receptor
# [21] = molecular target: T9, rat mu opioid receptor MOR-1; assay: whole-oocyte binding of 1 nM ^3H-DAMGO; oocytes injected with mRNAs for the µ receptor and the K^+ channel
# [22] = molecular target: T8, cloned human mu opioid receptor; assay: displacement of […] [3H]DAMGO; membranes of COS-7 cells expressing the human µ receptor
# [23] = molecular target: T9, rat mu opioid receptor MOR-1; assay: inhibition of [3H]DAMGO binding; membranes of COS-7 cells expressing the rat µ receptor
# T4 sequence (P35370 whole entry): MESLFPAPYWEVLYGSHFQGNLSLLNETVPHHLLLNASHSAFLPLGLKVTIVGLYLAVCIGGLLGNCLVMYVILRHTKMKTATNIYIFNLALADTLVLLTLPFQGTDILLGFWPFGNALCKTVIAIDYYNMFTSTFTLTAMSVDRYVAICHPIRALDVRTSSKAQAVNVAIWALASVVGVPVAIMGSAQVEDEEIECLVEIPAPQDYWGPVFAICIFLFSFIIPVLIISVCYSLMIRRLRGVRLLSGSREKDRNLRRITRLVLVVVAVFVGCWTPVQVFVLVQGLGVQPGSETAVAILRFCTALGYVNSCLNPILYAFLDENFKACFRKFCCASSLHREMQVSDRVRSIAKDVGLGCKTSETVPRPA
molecule,measurement,setting,value
CC1=C[C@H]2[C@@]3(O)[C@H](C)[C@@H](O)[C@]4(O)[C@H]([C@@H]3C=C(CO)C[C@@]2(O)C1=O)C4(C)C [4α-phorbol],second DAMGO response relative to the first (peak current),[1],87%+2%
"Nc1ncnc2c1nc(Sc1ccc(Cl)cc1)n2[C@@H]1O[C@@H]2COP(=O)(O)O[C@H]2[C@H]1O [8-CPT-cAMP, 8-chlorophenylthio-cAMP]",effect of kinase modulators on desensitization (in words),[2],completely abolished the desensitization
COc1cccc2c1[C@]13CCN(CC4CC4)[C@H](C2)[C@]1(OC)CCC(=O)C3 [Cyprodime],Ki,[3],9.1 ± 2.8 nM
same,Ki values (in words),[3],nanomolar range
"CC1(C)SSC(C)(C)[C@@H](NC(=O)[C@@H](N)Cc2ccc(O)cc2)C(=O)NCC(=O)N[C@@H](Cc2ccccc2)C(=O)N[C@H]1C(=O)O [DPDPE, [D-Pen^2.5]-enkephalin]",induction of potassium conductance (in words),[4],no potassium conductance was induced
"CC(C)C[C@H](NC(=O)[C@H](Cc1ccccc1)NC(=O)CNC(=O)[C@@H](CO)NC(=O)[C@@H](N)Cc1ccc(O)cc1)C(=O)N[C@H](C(=O)O)[C@@H](C)O [DSLET, [D-Ser, Leu^5, Thr^6]-enkephalin]",Ki,[3],314 nM
Nc1nc2c(ncn2[C@@H]2O[C@H](COP(=O)(O)OP(=O)(O)OP(=O)(O)O)[C@@H](O)[C@H]2O)c(=O)[nH]1 [GTP],effect on specific [3H]DAMGO binding (in words),rat μ opioid receptor,decrease the specific binding
Nc1nc2c(ncn2[C@@H]2O[C@H](COP(=O)(O)OP(=O)(O)NP(=O)(O)O)[C@@H](O)[C@H]2O)c(=O)[nH]1 [Gp(NH)pp],effect on specific [3H]DAMGO binding (in words),rat μ opioid receptor,decrease the specific binding
"CCCCCCCCCCCCCC(=O)O[C@@H]1[C@@H](C)[C@@]2(O)[C@@H](C=C(CO)C[C@]3(O)C(=O)C(C)=C[C@@H]23)[C@@H]2C(C)(C)[C@]12OC(C)=O [PMA, phorbol 12-myristate 13-acetate]",second DAMGO response relative to the first (peak current),[1],29%+7%
same,effect of kinase modulators on desensitization (in words),[2],further reduced the second response
CN1CC[C@]23CCCC[C@H]2[C@H]1Cc1ccc(O)cc13 [levorphanol],effect on forskolin-stimulated cAMP accumulation (in words),[5],decreased cAMP accumulation
COC(=O)/C=C/C(=O)N[C@@H]1CC[C@@]2(O)[C@H]3Cc4ccc(O)c5c4[C@@]2(CCN3CC2CC2)[C@H]1O5 [β-funaltrexamine],Ki values (in words),[3],nanomolar range
same,Ki,[3]; read-out: Ki values,1.3 ± 0.1 nM
same,Ki,[6],0.29 nM
"CTOP, D-Phe-Cys-Tyr-D-Trp-Orn-Thr-Pen-Thr-NH2 (peptide)",Ki,[7],3.9 nM
Dynorphin A,difference in Ki between the inventor's clone and the clone of Wang et al.,[8],over 100 fold
same,Ki,Mu1 site,0.7 nM
same,Ki,Mu2 site,2.2 nM
same,Ki,[9],5 nM
same,Ki,[10],3 nM
GGFMTSEKSQTPLVTLFKNAIIKNAYKKGE [des-Tyr^1-β-endorphin],Ki,[6],> 1000 nM
Leu-enkephalin,effect on forskolin-stimulated cAMP accumulation (in words),[5],significantly reduced
"[D-Ala^2, N-Me-Phe^4, Gly-ol^5]-enkephalin (peptide)","DAMGO/control (cAMP with forskolin plus DAMGO over forskolin only), morphine-treated cells",[11],42.4%
same,"DAMGO/control (cAMP with forskolin plus DAMGO over forskolin only), naive cells",[11],71.9%
same,"EC50 of inhibition of forskolin-stimulated intracellular cAMP, naive transfected CHO cells",[11],30 nM
same,"GTPase activity of G proteins, stably transfected CHO cells, 10 µM DAMGO",[11],30%
same,"barium current through a voltage-activated calcium channel, Xenopus oocytes with the channel and the mu opioid receptor, 1 µM DAMGO",[11],> 80 % reduction
same,"intracellular cAMP level after forskolin, COS-7 cells expressing MOR-1, 100 nM DAGO",[11],18.1 % reduction
same,"intracellular cAMP level, Forskolin + DAMGO (1 µM), morphine-treated cells (fmol/1 × 10^3 cells)",[11],38.9
same,"intracellular cAMP level, Forskolin + DAMGO (1 µM), naive cells (fmol/1 × 10^3 cells)",[11],25.6
same,"low Km GTPase activity, membranes of stably transfected CHO cells, 1 µM DAMGO",[11],33%
same,"maximal inhibition of intracellular cAMP, naive transfected CHO cells",[11],25%
same,"maximal inhibition of intracellular cAMP, transfected CHO cells treated with morphine for 24 hr",[11],60%
same,Kd,[12],1 nM
same,decrease of specific labelling by GTPgS,[13],55%
same,decrease of specific labelling by GTPgS,[14],65%
same,Bmax (fmol/mg membrane protein),[15],630
same,Kd,[15],0.47 nM
same,Bmax (fmol/mg membrane protein),[16],381
same,decrease of labelling after PTX-pretreatment,[17],42%
same,decrease of labelling after PTX-pretreatment,[18],79%
same,Ki,[19],2.8 nM
same,Bmax,[20],232 fmol/mg
same,Kd,[20],1 nM
same,specific binding,[21],1 fmol/oocyte
"[D-Pen^2,5]-enkephalin (peptide)",IC50,[22],> 1000 nM
cyclic somatostatin (peptide),IC50,[19],11000 nM
"AGCKNFFWKTFTSC (peptide, UniProt P61278 103-116, looked up, mature) [Somatostatin-1-14]",IC50,[19],730000 nM
"YGGFMTSEKSQTPLVTLFKNAIIKNAYKKGE (peptide, UniProt P01189 237-267, looked up, mature) [β-endorphin]",Ki,[23],1.7 nM

# — patent US7097988B1 (ADVANCED RESEARCH AND TECHNOLOGY INSTITUTE, dated 2006)
